The test concerns the target T1, Prostate-specific membrane antigen (Homo sapiens, UniProt Q04609).
T1 construct: also called PSMA; glutamate carboxypeptidase II; source: on PSMA-positive PC3-PIP cells
The test can be described thus: flow cytometry on cells; PSMA-positive PC3-PIP cells (PC3 as negative control) mixed with 5-fold dilution series of the construct, 20 μL, 15 min at 4°C; 5D3-CP33 detected by anti-Strep tag antibody and Alexa Fluor 647 secondary, ch5D3 by anti-human Alexa Fluor 647 secondary; KD by non-linear regression. To be noted: one partner purified.

T1 sequence (Q04609 whole entry): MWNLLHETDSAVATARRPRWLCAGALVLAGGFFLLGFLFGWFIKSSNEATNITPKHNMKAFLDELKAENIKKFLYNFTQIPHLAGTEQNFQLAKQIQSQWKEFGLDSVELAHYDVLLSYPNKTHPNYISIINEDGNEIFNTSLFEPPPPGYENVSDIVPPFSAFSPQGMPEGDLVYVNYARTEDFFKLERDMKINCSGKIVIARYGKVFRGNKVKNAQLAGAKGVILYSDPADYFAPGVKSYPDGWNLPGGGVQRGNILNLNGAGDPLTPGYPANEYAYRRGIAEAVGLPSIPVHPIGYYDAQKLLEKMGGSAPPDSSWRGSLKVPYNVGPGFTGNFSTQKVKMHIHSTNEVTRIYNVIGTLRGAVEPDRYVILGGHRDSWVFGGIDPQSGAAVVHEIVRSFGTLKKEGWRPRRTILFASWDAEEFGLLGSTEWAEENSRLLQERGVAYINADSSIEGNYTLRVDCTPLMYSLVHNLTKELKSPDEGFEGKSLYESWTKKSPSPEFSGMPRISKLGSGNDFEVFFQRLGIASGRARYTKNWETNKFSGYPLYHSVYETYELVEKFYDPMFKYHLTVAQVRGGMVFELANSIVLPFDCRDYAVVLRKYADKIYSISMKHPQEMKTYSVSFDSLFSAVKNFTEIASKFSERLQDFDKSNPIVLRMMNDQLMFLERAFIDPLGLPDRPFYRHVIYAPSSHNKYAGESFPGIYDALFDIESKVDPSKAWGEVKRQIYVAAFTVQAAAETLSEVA

B1: 5D3-CP33 bispecific monocyte engager (5D3-scFv HL fused to the N-terminus of CP33) (bispecific antibody, V domains shown)
VH: EVQLQQSGPELVKPGASVKISCKTSGYAFNTSWMNWVKQRPGQGLEWIGRIYPGDGDTNYNGKFKGKATLTADKSSSTAHMHLSSLTSVDSAVYFCARGEWYLYYFDYWGQGTTLTVSS
VL: DIQMTQTTSSLSASLGDRVTISCSASQGINNFLTWYQQKPDGTLKLLIYYTSSLHSGVPSRFSGSGSGTDYSLTIRNLEPEDIATYYCQQYSNLPFTFGGGTKVEIK
notes: VH of the anti-PSMA antibody 5D3 (scFv HL, heavy then light); linker of the 5D3 scFv HL; VL of the anti-PSMA antibody 5D3; The construct has the BiP secretion signal at its N-terminus (vector pMT/BiP/V5-HisA); About 35 kDa; also called 5D3-CP33 fusion; 5D3-scFv-CP33; not shown: SA-strep II, C-terminal, kept
Molecule B1 came in with a Kd of 3.4 nM.

Values taken from publication PMC11913275, “Targeting prostate cancer by new bispecific monocyte engager directed to prostate-specific membrane antigen” (PLOS One, 2025).
